B1: BCL2L13 (parent)
chain: YIIQQGGWGTVFSLESEEEEYPGI

Variants of: B1
Assay: protein stability index of a GFP-peptide fusion (GPS, HEK-293T) (PSI 1-6); higher = more stable
Settings: c terminus: a fixed tail appended
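Also: lentivirally expressed fusions sorted by FACS into six bins by GFP to DsRed ratio, PSI derived from sequencing read proportions per bin multiplied by bin number.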

Variant | protein stability index
YIIQQGLWGTVFSLESEEEEYPGI | 1.82
YIIQQGCWGTVFSLESEEEEYPGI | 1.72
YIIQQGAWGTVFSLESEEEEYPGI | 2.35
YIIQQGSWGTVFSLESEEEEYPGI | 1.46
YIIQQGDWGTVFSLESEEEEYPGI | 1.87
YIIQQGRWGTVFSLESEEEEYPGI | 1.73
YIIQQGIWGTVFSLESEEEEYPGI | 2.58
YIIQQGTWGTVFSLESEEEEYPGI | 1.45
YIIQQGPWGTVFSLESEEEEYPGI | 1.58
YIIQQGNWGTVFSLESEEEEYPGI | 1.05
YIIQQGQWGTVFSLESEEEEYPGI | 2.85
YIIQQGKWGTVFSLESEEEEYPGI | 2.06
YIIQQGHWGTVFSLESEEEEYPGI | 2.14
YIIQQGYWGTVFSLESEEEEYPGI | 3.6
YIIQQGEWGTVFSLESEEEEYPGI | 1.74
YIPQQGGWGTVFSLESEEEEYPGI | 2.56
YISQQGGWGTVFSLESEEEEYPGI | 2.04
YIAQQGGWGTVFSLESEEEEYPGI | 1.58
YIHQQGGWGTVFSLESEEEEYPGI | 2.71
YIFQQGGWGTVFSLESEEEEYPGI | 2.27
YIEQQGGWGTVFSLESEEEEYPGI | 2.63
YDIQQGGWGTVFSLESEEEEYPGI | 3.9
YGIQQGGWGTVFSLESEEEEYPGI | 2.95
YKIQQGGWGTVFSLESEEEEYPGI | 3.31

Variant | protein stability index
YAIQQGGWGTVFSLESEEEEYPGI | 1.96
YLIQQGGWGTVFSLESEEEEYPGI | 2.76
YTIQQGGWGTVFSLESEEEEYPGI | 2.75
YFIQQGGWGTVFSLESEEEEYPGI | 2.68
YHIQQGGWGTVFSLESEEEEYPGI | 2.9
YMIQQGGWGTVFSLESEEEEYPGI | 2.86
YRIQQGGWGTVFSLESEEEEYPGI | 2.42
YYIQQGGWGTVFSLESEEEEYPGI | 2.46
YEIQQGGWGTVFSLESEEEEYPGI | 5.34
YQIQQGGWGTVFSLESEEEEYPGI | 1.98
YWIQQGGWGTVFSLESEEEEYPGI | 2.38
YIIQQGGWGTVMSLESEEEEYPGI | 2.98
YIIQQGGWGTVQSLESEEEEYPGI | 1.24
YIIQQGGWGTVTSLESEEEEYPGI | 2.13
YIIQQGGWGTVLSLESEEEEYPGI | 1.81
YIIQQGGWGTVPSLESEEEEYPGI | 1.58
YIIQQGGWGTVRSLESEEEEYPGI | 1.83
YIIQQGGWGTVISLESEEEEYPGI | 1.64
YIIQQGGWGTVSSLESEEEEYPGI | 2.03
YIIQQGGWGTVDSLESEEEEYPGI | 2.35
YIIQQGGWGTVVSLESEEEEYPGI | 1.65
YIIQQGGWGTVNSLESEEEEYPGI | 1.56
YIIQQGGWGTVHSLESEEEEYPGI | 1.75
YIIQQGGWGTVASLESEEEEYPGI | 2.5

Variant | protein stability index
YIIQQGGWGTVKSLESEEEEYPGI | 2.39
YIIQQGGWGTVESLESEEEEYPGI | 2.66
YIIQQGGWGTVFSLECEEEEYPGI | 3.01
YIIQQGGWGTVFSLEAEEEEYPGI | 1.69
KIIQQGGWGTVFSLESEEEEYPGI | 3.39
GIIQQGGWGTVFSLESEEEEYPGI | 4.05
QIIQQGGWGTVFSLESEEEEYPGI | 3.18
LIIQQGGWGTVFSLESEEEEYPGI | 1.87
RIIQQGGWGTVFSLESEEEEYPGI | 3.87
IIIQQGGWGTVFSLESEEEEYPGI | 1.6
EIIQQGGWGTVFSLESEEEEYPGI | 2.86
DIIQQGGWGTVFSLESEEEEYPGI | 3.47
VIIQQGGWGTVFSLESEEEEYPGI | 2.57
NIIQQGGWGTVFSLESEEEEYPGI | 4.12
FIIQQGGWGTVFSLESEEEEYPGI | 1.18
AIIQQGGWGTVFSLESEEEEYPGI | 3.38
PIIQQGGWGTVFSLESEEEEYPGI | 4.31
CIIQQGGWGTVFSLESEEEEYPGI | 2.47
HIIQQGGWGTVFSLESEEEEYPGI | 3.19
TIIQQGGWGTVFSLESEEEEYPGI | 3.75
YIIQQGGKGTVFSLESEEEEYPGI | 2.1
YIIQQGGFGTVFSLESEEEEYPGI | 2.83
YIIQQGGYGTVFSLESEEEEYPGI | 2.84
YIIQQGGAGTVFSLESEEEEYPGI | 2.02

Variant | protein stability index
YIIQQGGPGTVFSLESEEEEYPGI | 2.97
YIIQQGGCGTVFSLESEEEEYPGI | 2.31
YIIQQGGTGTVFSLESEEEEYPGI | 2.84
YIIQQGGRGTVFSLESEEEEYPGI | 2.37
YIIQQGGEGTVFSLESEEEEYPGI | 3.31
YIIQQGGIGTVFSLESEEEEYPGI | 1.66
YIIQQGGGGTVFSLESEEEEYPGI | 2.58
YIIQQGGSGTVFSLESEEEEYPGI | 3.17
YIIQQGGHGTVFSLESEEEEYPGI | 2.81
YIIQQGGQGTVFSLESEEEEYPGI | 3.93
YIIQQGGVGTVFSLESEEEEYPGI | 1.53
YIIQQGGDGTVFSLESEEEEYPGI | 2.56
YIIQQGGLGTVFSLESEEEEYPGI | 1.99
YIIQQGGNGTVFSLESEEEEYPGI | 3.09
YIIQQGGMGTVFSLESEEEEYPGI | 1.88
YIIQTGGWGTVFSLESEEEEYPGI | 1.72
YIIQRGGWGTVFSLESEEEEYPGI | 1.92
YIIQEGGWGTVFSLESEEEEYPGI | 1.33
YIIQNGGWGTVFSLESEEEEYPGI | 1.73
YIIQWGGWGTVFSLESEEEEYPGI | 2.16
YIIQGGGWGTVFSLESEEEEYPGI | 1.69
YIIQMGGWGTVFSLESEEEEYPGI | 1.67

Source: the supplement of paper PMC10567573
